Paper PMC7335187, “Super-assembly of ER-phagy receptor Atg40 induces local ER remodeling at contacts with forming autophagosomal membranes” (Nature Communications, 2020)

Tests used:
LC3B WT (rat LC3B 1-120) [1] = biological target: T1, LC3B WT (rat LC3B 1-120) (rat, UniProt Q62625 1-120); assay: ITC; peptide in the syringe (0.5 mM) titrated into 200 µl of the Atg8 homologue in the cell at a 10 times lower concentration; MicroCal iTC200, 25 °C, stirring at 1000 rpm; single-site binding model; N fixed to 1.0 when the fitting was not convergent due to weak interaction; errors are fitting errors; conditions: both partners purified
[2] = biological target: T2, GABARAP WT (human GABARAP 1-116) (human, UniProt O95166 1-116); assay: as above; conditions: both partners purified
T2 sequence (O95166 1-116): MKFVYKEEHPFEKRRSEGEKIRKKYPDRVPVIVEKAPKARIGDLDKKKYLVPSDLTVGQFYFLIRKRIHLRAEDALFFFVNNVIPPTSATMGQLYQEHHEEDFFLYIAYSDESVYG

LC3A WT [3] = biological target: T3, LC3A WT (UniProt Q9H492 1-121); assay: as above; conditions: both partners purified
[4] = biological target: T4, Atg8 K26P (in the crystallised Atg40^237–252-Atg8 fusion) (S. cerevisiae, UniProt P38182 1-116, K26P); assay: crystal structure; the AIM sequence fused to the N terminus of Atg8 K26P or GABARAP F3S V4T on one chain; sitting-drop vapor diffusion at 20 °C; molecular replacement; conditions: both partners purified
T4 construct: Atg8, S. cerevisiae (ScAtg8), residues 1-116; K26P introduced for stabilizing Atg8; the GST of the fusion stood before m15 and was cleaved; source: E. coli BL21 (DE3), purified (GST-accept resin, HRV 3C protease, SEC), on one chain with m15
T4 sequence (looked up): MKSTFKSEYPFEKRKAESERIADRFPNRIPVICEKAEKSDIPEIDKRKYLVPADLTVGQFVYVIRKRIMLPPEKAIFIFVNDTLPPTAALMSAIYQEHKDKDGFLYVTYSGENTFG

Atg8 (1-116) K26P = biological target: T5, Atg8 (1-116) K26P (S. cerevisiae, UniProt P38182 1-116, K26P); assay: ITC; MicroCal iTC200, 25 °C; peptide in the syringe (FAM134B, SEC62, RTN3 0.5 mM; Atg40^234–252 2.0 mM; Atg40^237–252 1.8 mM), Atg8-family protein in the cell at 10 times lower concentration (1.8 mM Atg8 for Atg40^237–252 D243A D247A); 20 mM HEPES pH 6.8, 150 mM NaCl; single-site model; errors are fitting errors; conditions: both partners purified
T5 sequence (looked up): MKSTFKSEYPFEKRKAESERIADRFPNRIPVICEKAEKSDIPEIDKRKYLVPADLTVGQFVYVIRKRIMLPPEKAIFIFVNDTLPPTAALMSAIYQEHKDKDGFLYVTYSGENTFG

GABARAPL1 WT [5] = biological target: T6, GABARAPL1 WT (UniProt Q9H0R8 1-117); assay: ITC; peptide in the syringe (0.5 mM) titrated into 200 µl of the Atg8 homologue in the cell at a 10 times lower concentration; MicroCal iTC200, 25 °C, stirring at 1000 rpm; single-site binding model; N fixed to 1.0 when the fitting was not convergent due to weak interaction; errors are fitting errors; conditions: both partners purified
T6 sequence (Q9H0R8 whole entry): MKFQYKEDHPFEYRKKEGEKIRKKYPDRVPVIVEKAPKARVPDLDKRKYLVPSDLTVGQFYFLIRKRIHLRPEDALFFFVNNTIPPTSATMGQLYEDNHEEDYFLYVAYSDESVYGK

GABARAPL2 WT [6] = biological target: T7, GABARAPL2 WT (UniProt P60520 1-117); assay: as above; conditions: both partners purified
T7 sequence (P60520 whole entry): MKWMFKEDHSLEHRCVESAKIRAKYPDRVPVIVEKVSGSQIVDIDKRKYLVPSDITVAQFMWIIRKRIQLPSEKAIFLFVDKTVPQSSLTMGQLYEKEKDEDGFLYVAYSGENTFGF

LC3A WT [7] = biological target: T3, LC3A WT; assay: as above; conditions: both partners purified; remark: listed apart in the source
GABARAPL1 WT [8] = biological target: T6, GABARAPL1 WT; assay: as above; conditions: both partners purified; remark: listed apart in the source
GABARAPL2 WT [9] = biological target: T7, GABARAPL2 WT; assay: as above; conditions: both partners purified; remark: listed apart in the source
LC3C WT = LC3C WT (UniProt Q9BXW4 1-126); assay: as above; conditions: both partners purified
LC3C WT, sequence (Q9BXW4 1-126): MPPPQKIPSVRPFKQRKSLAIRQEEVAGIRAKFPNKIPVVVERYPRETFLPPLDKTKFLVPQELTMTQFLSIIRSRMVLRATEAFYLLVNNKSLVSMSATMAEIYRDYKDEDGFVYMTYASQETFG

LC3B WT (rat LC3B 1-120) [10] = biological target: T1, LC3B WT (rat LC3B 1-120); assay: as above; conditions: both partners purified; remark: listed apart in the source
[11] = biological target: T2, GABARAP WT (human GABARAP 1-116); assay: as above; conditions: both partners purified; remark: listed apart in the source
[12] = biological target: the molecule itself; assay: co-IP; two-step: anti-FLAG beads, elution with 3 x FLAG peptide, then GFP nanobody-conjugated beads, blot for Atg40-HA; wild-type cells; larger oligomers significantly decreased in atg1Δ, atg2Δ and atg8Δ cells
[13] = biological target: the molecule itself; assay: SEC-MALS; Atg40-6His solubilized in DDM; Superdex 200 increase 10/300 in 20 mM Tris-HCl pH 8.0, 150 mM NaCl, 0.03% DDM, room temperature

B1: RTN3245-253 (Δhelix) peptide (peptide)
peptide: YESPFEVIID
notes: numbers count on: isoform e; also called RTN3245-253 WT (Δhelix); source: synthetic peptide
Kd (LC3B WT (rat LC3B 1-120) [1]): 31.1 µM | stoichiometry N (LC3B WT (rat LC3B 1-120) [1]): 0.91 site | Kd [2]: 14 µM | stoichiometry N [2]: 0.82 site | Kd (LC3A WT [3]): 21.7 µM | stoichiometry N (LC3A WT [3]): 0.54 site

EFPNDYDFMEDILDET (domain or fragment, S. cerevisiae, UniProt Q99325 237-252, looked up) [Atg40^237–252 (in the crystallised Atg40^237–252-Atg8 fusion)]
binding result [4]: binds

B2: Atg40^234–252 peptide (peptide, UniProt Q99325 234-252, looked up)
peptide: TSTEFPNDYDFMEDILDET
notes: Atg40, S. cerevisiae, residues 234-252; also called wild-type peptide; source: synthetic peptide (Liberty Blue peptide synthesizer), SEC
Kd (Atg8 (1-116) K26P): 0.59 µM

B3: RTN3245-264 peptide (peptide)
peptide: ESPFEVIIDKAAFDKEFKDSY
notes: numbers count on: isoform e; Tyr attached to the C terminus for quantification by absorbance at 280 nm; source: synthetic peptide
Kd (LC3B WT (rat LC3B 1-120) [1]): 28.8 µM | Kd [2]: 5.03 µM | stoichiometry N [2]: 0.74 site | Kd (LC3A WT [3]): 17.2 µM | stoichiometry N (LC3A WT [3]): 0.55 site | Kd (GABARAPL1 WT [5]): 5 µM | stoichiometry N (GABARAPL1 WT [5]): 0.81 site | Kd (GABARAPL2 WT [6]): 17.4 µM | stoichiometry N (GABARAPL2 WT [6]): 0.51 site

B4: SEC62361-368 (Δhelix) peptide (peptide)
peptide: NDFEMITKY
notes: SEC62, human, residues 361-368 (lacks the helix C-terminal to the AIM/LIR); Tyr attached to the C terminus for quantification by absorbance at 280 nm; also called Sec62361-368 WT (Δhelix); source: synthetic peptide (BEX Co., Ltd.), SEC
Kd (LC3A WT [7]): 54.6 µM | stoichiometry N (LC3A WT [7]): 0.98 site | Kd (GABARAPL1 WT [8]): 13.3 µM | stoichiometry N (GABARAPL1 WT [8]): 0.99 site | Kd (GABARAPL2 WT [9]): 90.9 µM | Kd (LC3C WT): 31.9 µM

GPHSSGNGNDFEMITKEELEQQTDY [SEC62355-376 WT peptide]
Kd (LC3A WT [7]): 0.92 µM | stoichiometry N (LC3A WT [7]): 0.78 site | Kd (GABARAPL1 WT [8]): 0.39 µM | stoichiometry N (GABARAPL1 WT [8]): 0.83 site | Kd (GABARAPL2 WT [9]): 0.58 µM | stoichiometry N (GABARAPL2 WT [9]): 0.78 site | Kd (LC3C WT): 5.18 µM | stoichiometry N (LC3C WT): 0.46 site | Kd (LC3B WT (rat LC3B 1-120) [10]): 3.37 µM | stoichiometry N (LC3B WT (rat LC3B 1-120) [10]): 0.74 site

GPHSSGNGNDFEMATKEELEQQTDY [SEC62355-376 I366A peptide]
Kd [11]: 14.5 µM | stoichiometry N [11]: 0.87 site

B5: Atg40-HA (natural protein, S. cerevisiae, UniProt Q99325 1-256, looked up)
chain: MFNLILWPLFLLTSVAIPLQLTLEVVYLTSSVDFSKASAAKTATSLGQSPVVITIYKSLLKYWSLYEFIHFIYLYTPIDAFLNFLPFTSLLMSFGSICLTRELVYDFIAFMESQNKLTGFLNKITEPNFNSYLLFSSIYNIWFADDTNDKFLFGKLTQILISVTKRYEFPRTFYLAKVSDFLQNLILTRLRPFVTEQPQGDKNRYQNGDRESTKNGAAYQKSSQQSSSFEQNFTSTEFPNDYDFMEDILDETTELD
notes: Atg40, ER-phagy receptor of S. cerevisiae; also called Atg40-FLAG; Atg40-GFP; source: S. cerevisiae cells treated with rapamycin, in lysate
stoichiometry N [12]: > 2

B6: Atg40-6His (natural protein, S. cerevisiae, UniProt Q99325 1-256, looked up)
chain: MFNLILWPLFLLTSVAIPLQLTLEVVYLTSSVDFSKASAAKTATSLGQSPVVITIYKSLLKYWSLYEFIHFIYLYTPIDAFLNFLPFTSLLMSFGSICLTRELVYDFIAFMESQNKLTGFLNKITEPNFNSYLLFSSIYNIWFADDTNDKFLFGKLTQILISVTKRYEFPRTFYLAKVSDFLQNLILTRLRPFVTEQPQGDKNRYQNGDRESTKNGAAYQKSSQQSSSFEQNFTSTEFPNDYDFMEDILDETTELD
notes: Atg40, S. cerevisiae; Atg40-6His is printed as 30.6 kDa; also called purified Atg40; source: S. cerevisiae BJ3505 (GPD promoter), purified from membranes in DDM (Ni-NTA, SEC)
stoichiometry N [13]: 2
